Binding result, Kd and koff data for two molecules are collected here from patent US20200087367A1 (ACCELERON PHARMA, published 2020).

One assay has as its target T1, BMP10pro(22-315)-mFc (human, UniProt O95393 22-315).
T1 construct: also called mouse Fc equivalent construct; not shown: optional linker and mouse immunoglobulin G1 Fc domain
T1 sequence: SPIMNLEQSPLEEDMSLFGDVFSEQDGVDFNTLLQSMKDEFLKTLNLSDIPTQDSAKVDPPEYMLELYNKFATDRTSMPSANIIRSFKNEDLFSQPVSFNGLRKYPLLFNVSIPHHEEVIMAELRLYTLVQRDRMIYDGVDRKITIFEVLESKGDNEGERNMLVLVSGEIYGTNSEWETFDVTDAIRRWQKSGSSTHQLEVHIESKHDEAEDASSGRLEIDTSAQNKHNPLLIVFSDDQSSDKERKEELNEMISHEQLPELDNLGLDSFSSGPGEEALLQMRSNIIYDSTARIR
Description: SPR (Biacore), BMP10pro-Fc captured by anti-Fc antibody, ligand injected. The protocol:
(§1) The BMP10pro-Fc proteins were separately was captured onto the system using an anti-Fc antibody, and ligands were injected and allowed to flow over the captured receptor protein. […] The mouse Fc equivalent constructs behaved similarly. […] The affinity of BMP10pro(22-315)-hFc for BMP3b was not assessed.
(In general: Surface plasmon resonance follows binding to a sensor surface in real time, without labels.)

The target of the next assay is T2, BMP10pro(22-312)-mFc (human, UniProt O95393 22-312).
T2 construct: also called mouse Fc equivalent construct; not shown: optional linker and mouse immunoglobulin G1 Fc domain
T2 sequence: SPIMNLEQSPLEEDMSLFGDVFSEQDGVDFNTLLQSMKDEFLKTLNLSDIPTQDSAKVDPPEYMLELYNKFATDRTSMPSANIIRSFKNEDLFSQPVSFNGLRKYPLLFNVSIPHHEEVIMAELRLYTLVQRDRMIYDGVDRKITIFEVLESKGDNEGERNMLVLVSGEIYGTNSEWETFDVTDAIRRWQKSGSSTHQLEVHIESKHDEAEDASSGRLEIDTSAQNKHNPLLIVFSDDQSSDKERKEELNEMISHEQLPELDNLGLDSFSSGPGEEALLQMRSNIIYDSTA
The assay is described as above. On the procedure:
as §1

The next assay deals with T3, ActRIIA-mFc (human, UniProt P27037 21-135).
T3 construct: not shown: linker and mouse Fc domain
T3 sequence (P27037 21-135): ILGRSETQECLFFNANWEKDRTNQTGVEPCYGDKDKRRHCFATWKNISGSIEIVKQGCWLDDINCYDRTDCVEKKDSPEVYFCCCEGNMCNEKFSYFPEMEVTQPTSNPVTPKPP
Put plainly: SPR (Biacore), ligand amine-coupled to chip, Fc fusion injected.

In a further assay the target is T4, ActRIIB-mFc (human, UniProt Q13705 20-134).
T4 sequence: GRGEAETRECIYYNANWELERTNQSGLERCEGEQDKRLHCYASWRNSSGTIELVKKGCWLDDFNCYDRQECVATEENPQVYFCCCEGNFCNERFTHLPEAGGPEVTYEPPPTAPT
Put plainly: SPR (Biacore), ligand amine-coupled to CM5 chip, Fc fusion injected.

In another assay the target is T5, hENG(26-437)-hFc (human, UniProt P17813 26-437).
T5 construct: HEK 293, purified; not shown: linker and human IgG1 Fc domain
T5 sequence: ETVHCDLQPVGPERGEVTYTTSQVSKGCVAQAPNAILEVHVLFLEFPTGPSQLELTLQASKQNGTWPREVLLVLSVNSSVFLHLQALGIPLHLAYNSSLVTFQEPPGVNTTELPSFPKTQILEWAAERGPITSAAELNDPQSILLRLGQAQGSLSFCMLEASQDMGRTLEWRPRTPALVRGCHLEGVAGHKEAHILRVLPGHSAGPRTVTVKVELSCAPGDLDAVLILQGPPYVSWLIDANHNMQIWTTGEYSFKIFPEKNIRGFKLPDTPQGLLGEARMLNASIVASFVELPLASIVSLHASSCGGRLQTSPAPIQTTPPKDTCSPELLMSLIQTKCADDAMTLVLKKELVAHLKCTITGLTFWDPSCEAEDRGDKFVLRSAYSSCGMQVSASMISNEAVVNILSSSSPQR
Description: SPR kinetics; HEK293-cell-derived protein.

For another assay, the target named is T6, hENG(166-346)-hFc (human, UniProt P17813 166-346).
T6 construct: HEK 293, purified; not shown: linker and human IgG1 Fc domain
T6 sequence: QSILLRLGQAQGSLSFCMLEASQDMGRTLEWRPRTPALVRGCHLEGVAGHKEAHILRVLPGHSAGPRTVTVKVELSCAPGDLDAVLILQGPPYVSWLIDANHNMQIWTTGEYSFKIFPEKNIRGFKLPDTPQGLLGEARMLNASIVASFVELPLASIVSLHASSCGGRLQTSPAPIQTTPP
Description: SPR, captured hENG-hFc, soluble BMP9; '-' = Binding undetectable. The protocol: (§2) SPR methodology was used to screen these hENG-hFc protein variants for high-affinity binding to human BMP9 and BMP10. In these experiments, captured hENG-hFc proteins were exposed to soluble BMP9 or BMP10 at 100 nM each.

Another assay deals with T7, hENG(458-581)-hFc (human, UniProt P17813 458-581).
T7 construct: Expressed in COS cells, not purified; not shown: linker and human IgG1 Fc domain
T7 sequence: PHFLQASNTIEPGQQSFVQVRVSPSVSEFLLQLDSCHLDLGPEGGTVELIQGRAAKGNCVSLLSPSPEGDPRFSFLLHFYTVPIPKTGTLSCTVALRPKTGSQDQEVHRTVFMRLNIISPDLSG
The assay is described as above. The protocol: as §2

The next assay deals with T8, hENG(438-586)-hFc (human, UniProt P17813 438-586).
T8 construct: HEK 293, purified; not shown: linker and human IgG1 Fc domain
T8 sequence: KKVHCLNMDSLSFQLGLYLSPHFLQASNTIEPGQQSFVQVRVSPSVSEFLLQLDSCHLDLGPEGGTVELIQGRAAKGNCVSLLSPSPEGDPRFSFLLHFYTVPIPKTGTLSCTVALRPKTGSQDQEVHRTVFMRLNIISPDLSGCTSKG
The assay is described as above. On the procedure: as §2

The target of the next assay is T9, hENG(360-586)-hFc (human, UniProt P17813 360-586).
T9 construct: HEK 293, purified; not shown: linker and human IgG1 Fc domain
T9 sequence: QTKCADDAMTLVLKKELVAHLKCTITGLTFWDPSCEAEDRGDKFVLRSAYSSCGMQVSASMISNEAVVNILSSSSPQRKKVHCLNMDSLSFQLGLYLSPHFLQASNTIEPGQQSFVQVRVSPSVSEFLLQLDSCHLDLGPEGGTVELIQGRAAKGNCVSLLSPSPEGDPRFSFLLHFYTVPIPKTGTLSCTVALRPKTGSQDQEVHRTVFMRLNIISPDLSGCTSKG
Described as above. The protocol: as §2

B1: BMP10 (ligand)
chain: NAKGNYCKRTPLYIDFKEIGWDSWIIAPPGYEAYECRGVCNYPLAEHLTPTKHAIIQALVHLKNSQKASKACCVPTKLEPISILYLDKGVVTYKFKYEGMAVSECGCR
notes: also called hBMP-10; hBMP10
With B1, the binding result with BMP10pro(22-315)-mFc, with BMP10pro(22-312)-mFc, in the assay with ActRIIA-mFc and in the assay with ActRIIB-mFc was “binds” throughout.

B2: BMP9 (ligand, human, UniProt Q9UK05 320-429, looked up)
chain: SAGAGSHCQKTSLRVNFEDIGWDSWIIAPKEYEAYECKGGCFFPLADDVTPTKHAIVQTLVHLKFPTKVGKACCVPTKLSPISVLYKDDMGVPTLKYHYEGMSVAECGCR
notes: also called hBMP-9; hBMP9
As for B2, the binding result is given as “binds” in the assay with BMP10pro(22-315)-mFc; “binds” with BMP10pro(22-312)-mFc; “no binding (tested: 100 nM)” with hENG(166-346)-hFc; “no binding (tested: 100 nM)” with hENG(458-581)-hFc; “no binding (tested: 100 nM)” with hENG(438-586)-hFc; “no binding (tested: 100 nM)” with hENG(360-586)-hFc. For the same molecule, the binding result with ActRIIA-mFc and in the assay with ActRIIB-mFc was “binds” throughout. Binding with hENG(26-437)-hFc was put at a Kd of 0.019 nM. The same molecule registered a dissociation rate constant (koff) with hENG(26-437)-hFc of 0.0014 s⁻¹.

One may read the Kd as the concentration at which binding is half-saturated. A low value points to a tighter complex. Usually koff stands for a measure of how fast the partners let go of each other. A low value points to slow dissociation.
